# In the supplement of paper PMC10567573:
# B1: BCL2L13 (parent)
# chain: MASSSTVPLGFHYETKYVVLSYLG
# B2: BEX1 (parent)
# chain: HSLRAVSTDPPHHDHHDEFCLMP
# Variants of: B1
# Test: protein stability index of a GFP-peptide fusion (GPS, HEK-293T) (PSI 1-6); higher = more stable
# Settings: c terminus: a fixed tail appended
row,Variant,protein stability index
1,T6A,2.45
2,S3R,2.97
3,S3N,2.59
4,S3C,2.59
5,S3M,2.72
6,S3V,3
7,S3P,2.9
8,S3H,2.77
9,S3F,1.99
10,S3K,2.62
11,S3D,2.57
12,S3T,3.21
13,S3Q,2.21
14,S3G,3.46
15,S3I,3.39
16,S3E,3.48
17,S3A,2.39
18,S3Y,2.64
19,M1Q,1.76
20,M1C,2.59
21,M1G,3.23

row,Variant,protein stability index
1,M1F,2.74
2,M1P,2.72
3,M1H,2.59
4,M1I,2.51
5,M1K,2.03
6,M1T,2.27
7,M1S,2.15
8,M1E,2.12
9,M1D,3.17
10,M1R,2.48
11,M1V,2.12
12,M1Y,2.09
13,M1W,2.52
14,A2F,3.22
15,A2E,2.06
16,A2I,1.92
17,A2P,2.49
18,A2N,3.27
19,A2D,2.56
20,A2M,2.68
21,A2S,3.1

row,Variant,protein stability index
1,A2H,2.74
2,A2L,2.56
3,A2R,2.37
4,A2T,3.3
5,A2K,2.38
6,A2G,2.72
7,A2C,3.03
8,A2Q,2.37
9,S4A,2.6
10,S4T,2.81
11,S4D,2.74
12,S4V,2.91
13,S4M,1.76
14,S4N,1.7
15,S4I,2.21
16,S4K,2.21
17,S4H,2.24
18,S4Y,2.38
19,S4P,3.27
20,S4G,2.49
21,S4E,4.38

row,Variant,protein stability index
1,S4W,2.93
2,S4Q,3.25
3,S5M,2.51
4,S5E,1.53
5,S5I,2.74
6,S5A,1.72
7,S5G,2.2
8,S5T,2.71
9,S5P,2.24
10,S5F,2.55
11,S5C,2.11
12,S5V,2.17
13,S5W,2.02
14,S5D,2.72
15,S5Y,3.24
16,S5Q,2.96
17,S5N,2.72
18,S5H,2.09
19,S5K,1.91
20,S5R,2.4
21,S5L,2.16

# Variants of: B2
# Test: as above
# Settings: c terminus: native
row,Variant,protein stability index
1,T8P,2.14
2,H12T,3.57
3,F19R,1.8
4,F19A,3.6
5,F19M,2.6
6,F19I,2.89
7,F19P,2.79
8,F19S,3.38
9,F19T,1.95
10,F19K,1.59
11,F19H,2.8
12,F19W,2.39
13,F19Q,2.26
14,F19Y,2.33
15,F19E,2.82
16,F19L,1.97
17,F19D,2.37
18,F19V,2.17
19,F19N,2.42
20,S7K,2.62
21,S7A,1.29
22,S7E,2.32
23,S7P,2.54

row,Variant,protein stability index
1,A5Y,2
2,A5R,1.68
3,A5P,2.3
4,H13P,2.23
5,D9I,2.76
6,D9T,4.07
7,D9H,1.85
8,D9Q,3.63
9,E18A,1.58
10,E18L,2.29
11,E18I,2.05
12,E18Y,2.08
13,E18K,3.01
14,E18Q,1.93
15,E18M,2.24
16,E18C,2.46
17,E18D,2.6
18,E18T,2.2
19,E18N,2.84
20,E18P,2.79
21,E18H,3.57
22,E18S,2.32
23,E18F,3.33

row,Variant,protein stability index
1,E18V,2.14
2,S2G,2.21
3,S2P,1.93
4,M22L,1.91
5,M22A,2.11
6,M22H,2.01
7,M22K,3.36
8,M22R,2.74
9,M22F,1.19
10,M22W,2.48
11,M22P,2.68
12,M22C,2.48
13,M22S,2.59
14,M22E,2.4
15,M22T,3.4
16,M22N,2.52
17,M22D,2.11
18,M22I,2.04
19,M22G,1.79
20,M22V,2.75
21,M22Q,2.83
22,M22Y,2.35
23,C20H,2.41

row,Variant,protein stability index
1,C20S,2.35
2,C20K,4.4
3,C20E,2.34
4,C20A,2.05
5,C20Q,1.89
6,C20P,1.97
7,C20M,2.16
8,C20W,3.13
9,C20Y,2.92
10,C20N,2.21
11,C20L,3.49
12,C20T,2.3
13,C20D,2.69
14,C20I,3.11
15,C20F,3.54
16,C20R,3.55
17,C20V,3.09
18,C20G,3.08
19,P11H,2.62
20,D14H,2.62
21,D14T,3.55
22,L21Q,2.14
23,L21H,1.22

row,Variant,protein stability index
1,L21D,2.46
2,L21S,2.31
3,L21W,1.92
4,L21R,1.99
5,L21P,2.75
6,L21V,2.53
7,L21F,2.37
8,L21Y,2.2
9,L21K,2.07
10,L21I,1.68
11,L21A,1.67
12,L21E,2.51
13,L21T,2.47
14,L21G,2.9
15,L21M,2.21
16,L21C,2.63
17,L21N,2.84
18,V6H,1.83
19,V6E,2.26
20,V6Q,2.21
21,V6T,1.79
22,V6W,3.53
23,H16P,2.78

row,Variant,protein stability index
1,H16E,2.84
2,H16K,1.86
3,H16D,2.29
4,H16Y,2.61
5,H16Q,2.17
6,H16V,2
7,H16I,1.65
8,H16L,2.4
9,H16G,1.99
10,H16A,2.52
11,H16M,2.2
12,H16R,2.24
13,H16F,2.67
14,H16C,2.44
15,H16N,2.06
16,H16T,2.58
17,H16S,2.61
18,R4H,2.76
19,R4Y,2.16
20,R4S,2
21,R4N,2.64
22,R4P,2.6
23,R4D,2.54

row,Variant,protein stability index
1,P23C,2.32
2,P23D,4.48
3,P23A,2.23
4,P23R,2.45
5,P23Q,2.84
6,P23S,2.77
7,P23H,3.59
8,P23L,2.66
9,P23K,2.9
10,P23V,2.19
11,P23W,2.19
12,P23F,2.41
13,P23E,3.77
14,P23M,2.12
15,P23Y,2.07
16,P23N,3.49
17,P23G,2.55
18,P23T,1.75
19,L3F,2.27
20,L3P,2.19
21,H1V,1.77
22,H15R,2.15
23,H15I,2.19

row,Variant,protein stability index
1,H15Q,2.79
2,H15M,2.16
3,H15N,2.07
4,H15W,2.11
5,H15Y,1.84
6,H15V,3.14
7,H15T,1.86
8,H15S,1.8
9,D17C,2.45
10,D17E,2.59
11,D17M,4.33
12,D17S,2.78
13,D17V,2.93
14,D17Y,3.33
15,D17T,2.33
16,D17G,1.88
17,D17I,2.8
18,D17Q,2
19,D17W,3.5
20,D17L,2.72
21,D17P,2.96
22,D17A,1.76
23,D17F,3.35

# Variants of: B2
# Test: as above
# Settings: c terminus: native
# Remark: another data set of the same source
row,Variant,protein stability index
1,F19R,2.5
2,F19G,2.25
3,F19A,2.57
4,F19M,2.46
5,F19I,2.2
6,F19C,2.12
7,F19P,2.33
8,F19S,2.47
9,F19T,2.67
10,F19K,2.87
11,F19W,2.52
12,F19Q,2.46
13,F19Y,2.54
14,F19E,2.57
15,F19L,2.31
16,F19V,2.41
17,F19N,2.27
18,E18A,2.37
19,E18L,2.55
20,E18I,2.5
21,E18R,2.35
22,E18Y,2.22
23,E18G,2.48

row,Variant,protein stability index
1,E18K,1.95
2,E18Q,2.7
3,E18M,2.15
4,E18C,2.85
5,E18W,2.61
6,E18T,2.72
7,E18N,2.44
8,E18H,2.32
9,E18S,2.19
10,E18F,2.12
11,E18V,2.58
12,M22K,4
13,M22R,3.24
14,M22W,2.78
15,M22E,3.21
16,M22V,2.95
17,M22Q,2.9
18,C20H,3.74
19,C20S,2.48
20,C20K,4.78
21,C20E,2.5
22,C20A,2.8
23,C20Q,2.59

row,Variant,protein stability index
1,C20M,3.14
2,C20W,3.48
3,C20N,3.24
4,C20L,4.58
5,C20T,3.61
6,C20D,3.8
7,C20I,4.33
8,C20F,4.5
9,C20R,4.76
10,C20V,4.51
11,C20G,2.09
12,L21Q,3.42
13,L21H,2.92
14,L21S,3.23
15,L21W,2.9
16,L21R,2.33
17,L21V,2.66
18,L21F,2.21
19,L21Y,2.39
20,L21K,3.1
21,L21I,2.56
22,L21A,2.83
23,L21E,3.53

row,Variant,protein stability index
1,L21T,3.14
2,L21M,2.39
3,L21C,2.9
4,L21N,3.18
5,H16E,3.25
6,H16K,2.81
7,H16D,2.64
8,H16Y,2.58
9,H16Q,2.77
10,H16V,2.98
11,H16I,2.87
12,H16L,2.61
13,H16G,2.64
14,H16A,2.9
15,H16M,2.56
16,H16R,2.34
17,H16F,2.65
18,H16C,2.66
19,H16N,2.81
20,H16T,2.69
21,H16S,2.54
22,H16W,2.32
23,P23C,3.58

row,Variant,protein stability index
1,P23D,4.52
2,P23A,3.09
3,P23R,3.16
4,P23S,3.56
5,P23H,3.81
6,P23L,3.24
7,P23V,3.07
8,P23W,2.97
9,P23F,3.35
10,P23I,2.44
11,P23E,4.61
12,P23M,3.17
13,P23N,4.23
14,P23G,3.75
15,P23T,3.02
16,H15R,2.32
17,H15Q,2.48
18,H15M,2.56
19,H15N,2.76
20,H15W,2.14
21,H15Y,2.53
22,H15V,2.81
23,H15T,2.58

row,Variant,protein stability index
1,H15S,2.76
2,D17C,2.46
3,D17E,2.66
4,D17M,2.3
5,D17S,2.31
6,D17V,2.33
7,D17Y,2.17
8,D17T,2.42
9,D17N,2.4
10,D17R,2.16
11,D17G,2.11
12,D17I,2.57
13,D17Q,2.2
14,D17W,2.1
15,D17H,2.21
16,D17K,2.4
17,D17L,2.54
18,D17A,2.44
19,D17F,2.21
